Target: T1, human recombinant β-arrestin 1 (human, UniProt P49407 1-418)
T1 construct: β-arrestin 1, human, recombinant; Used as the prey (25 ng) in the GST pull-downs; source: bought: Gentaur (human recombinant)
Test: pull-down; GST fusion protein immobilised on Glutathione Sepharose 4B beads; 25 ng human recombinant β-arrestin 1 as prey, with or without 0.5 mM peptide; 20 mM Hepes pH 7.9, 50 mM KCl, 2.5 mM MgCl2, 1 mM DTT, 10% glycerol, protease and phosphatase inhibitors; 1 hour at 4 °C; six washes; blot with anti-β-arrestin, quantified as the ratio of β-arrestin 1 over GST fusion
Conditions: both partners purified

T1 sequence (P49407 whole entry): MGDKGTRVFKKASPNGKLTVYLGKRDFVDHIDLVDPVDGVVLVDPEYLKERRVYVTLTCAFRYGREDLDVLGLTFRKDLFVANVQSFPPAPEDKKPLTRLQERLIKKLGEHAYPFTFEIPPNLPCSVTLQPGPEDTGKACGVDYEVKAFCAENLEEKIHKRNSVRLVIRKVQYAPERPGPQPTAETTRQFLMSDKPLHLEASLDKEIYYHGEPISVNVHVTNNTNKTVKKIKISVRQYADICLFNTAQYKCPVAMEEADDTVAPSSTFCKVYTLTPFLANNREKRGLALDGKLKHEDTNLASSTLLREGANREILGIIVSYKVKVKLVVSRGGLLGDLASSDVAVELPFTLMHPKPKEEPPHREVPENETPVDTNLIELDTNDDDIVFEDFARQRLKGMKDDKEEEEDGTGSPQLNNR

Binder	binding result
KQRTVVNVRN (stretch of Raf1 at the predicted interface with β-arrestin 1, within the RBD; Printed as H-KQRTVVNVRN-OH (free ends); Resuspended in H2O and used at 0.5 mM; source: synthetic peptide (Genecust laboratories)) [Raf1 interfering peptide]	binds
ISPFEHQTY (stretch of ERK2 at the predicted interface with β-arrestin 1; Printed as H-ISPFEHQTY-OH (free ends); Resuspended in H2O + 5% DMSO and used at 0.5 mM; source: synthetic peptide (Genecust laboratories)) [ERK interfering peptide]	binds
